Holding throughout (details): both partners purified
Assay [1] concerns the target T1, C1 complex (C1qr2s2) (human, UniProt P02745 23-245; P02746 28-253; P02747 29-245).
T1 construct: Complement C1q, subunit A; Complement C1q, subunit B; Complement C1q, subunit C; Complement C1r, serine protease of the C1 complex; the PDB entry was used only for docking and holds a fragment; Complement C1s, serine protease of the C1 complex; Held on plates coated with human IgM; also called C1 component; source: bought: Merk-Millipore (purified C1 complex); copies: + + + 2 + 2
Nature of the assay: ELISA; C1 complex at 6.25 µg/ml bound to human IgM-coated plate (37°C, 2 h); rLdISP1/rLdISP2 0-50 µM added, 37°C, 2 h; bound ISP detected with anti-ISP1 or anti-ISP2 antibody; Kd taken as the free ligand at half saturation.

In assay [2] the target is T1, C1 complex (C1qr2s2). The assay is described as follows: ELISA; C1 complex at 25 µg/ml bound to human IgM-coated plate (37°C, 2 h); rLdISP1/rLdISP2 0-50 µM added, 37°C, 2 h; bound ISP detected with anti-ISP1 or anti-ISP2 antibody; Kd taken as the free ligand at half saturation. For orientation: ELISA stands for enzyme-linked immunosorbent assay.
Assay [3] addresses T1, C1 complex (C1qr2s2). Nature of the assay: ELISA; C1 complex at 50 µg/ml bound to human IgM-coated plate (37°C, 2 h); rLdISP1/rLdISP2 0-50 µM added, 37°C, 2 h; bound ISP detected with anti-ISP1 or anti-ISP2 antibody; Kd taken as the free ligand at half saturation.
The target of assay [4] is T1, C1 complex (C1qr2s2). Nature of the assay: ELISA; C1 complex at 12.5 µg/ml bound to human IgM-coated plate (37°C, 2 h); rLdISP1/rLdISP2 0-50 µM added, 37°C, 2 h; bound ISP detected with anti-ISP1 or anti-ISP2 antibody; Kd taken as the free ligand at half saturation.
For assay [5], the target named is T1, C1 complex (C1qr2s2). Nature of the assay: ELISA; C1 complex at 100 µg/ml bound to human IgM-coated plate (37°C, 2 h); rLdISP1/rLdISP2 0-50 µM added, 37°C, 2 h; bound ISP detected with anti-ISP1 or anti-ISP2 antibody; Kd taken as the free ligand at half saturation.

In general, Kd refers to a measure of binding affinity in units of concentration.

B1: recombinant Leishmania donovani inhibitor of serine peptidases 1 (natural protein)
chain: MSYCKIEAPYPTAEAGEKRIIFALDPKGDEAEQEQYMLQLIPGRVLEMSRNDAANHQTLGGSIEQHTVEGWGAKFFHVKLAKQAASTLMHVHDEDHSEKVRKFVAMPNPPLFPYRSRCPVVVYLPNDAELRYGIWCGGQQMQAVTE
On to B1, for which the Ka in assay [1] turned out to be 260000 M⁻¹; in assay [2] it was 330000 M⁻¹; in assay [3], 450000 M⁻¹; in assay [4] it was 280000 M⁻¹; in assay [5], 625000 M⁻¹. The Kd in assay [1] is 3800 nM; in assay [2] it was 2800 nM; in assay [3] it was 2200 nM; in assay [4], 3500 nM; in assay [5], 1600 nM.

The values above are taken from PMC5796892, “Leishmania donovani Inhibitor of Serine Peptidases 2 Mediated Inhibition of Lectin Pathway and Upregulation of C5aR Signaling Promote Parasite Survival inside Host” (Frontiers in Immunology, 2018).
